From patent US7262177B2, “Conjugates of glycosylated/galactosylated peptide, bifunctional linker, and nucleotidic monomers/polymers, and related compositions and methods of use” (priority 2000, dated 2007)

Key:
Hep G2 cells = experiment: Cellular uptake of 5FU 1-mer conjugates by Hep G2 cells; assay type: cell-based, human
Procedure: Hep G2 cells were passaged into 2 cm^2 wells and grown in RPMI 1640 medium, which was supplemented with L-glutamine (10-040, CV) to a density of 0.3×10^6 to 0.4×10^6 cells per well (48-well cluster plate, Costar, Cambridge, Mass.). […] Then, an aliquot of the medium was saved for scintillation counting and the remainder of the medium aspirated from the well. The cells were washed with D-PBS (2×0.5 ml), treated with 0.25% trypsin (37° C., 2 minutes; trypsin prepared in HBSS with 1.0 mM EDTA) and suspended in fresh growth medium containing 10% FCS. The suspended cells were layered over silicon oil (0.5 ml) in a 1.7 ml conical microcentrifuge tube and pelleted by centrifugation at 14,000 rpm (12,000 g) for 30 seconds. The supernatant was carefully decanted and the cell pellet was lysed with 100 μl of a solution containing 0.5% NP 40, 100 mM sodium chloride, 14 mM Tris/HCl and 30% acetonitrile. The amount of radioactivity, and by inference the amount of neoglycoconjugate or oligomer associated with the cell lysate, was determined by scintillation counting.

[1] = Hepatic and systemic toxicity, 4 weekly bolus injections; assay type: in vivo, CD-1 mice
Procedure: Mice have previously been used as in vivo models for 5FU drug testing in the following manner (Ain et al., J. Surg. Res., 57, 366-372 (1994); Wang et al., Cancer Res., 50, 869s-872s (1990)). The plasma profiles, induced toxicities and pharmacokinetics of 5FU in mice are similar to those observed in humans (Wagner et al., Cancer Res., 46, 1499-1506 (1986)). Both po 1-mer and 5FdU were administered on a clinically relevant regimen of 4 weekly bolus injections via the tail vein (Anfield et al., Cancer, 39, 34-40 (1977)). The starting doses of 10 mg/kg and 15 mg/kg were determined by extrapolation of the in vitro data. One week after each injection, a cohort of animals (6 animals/dose/treatment) was sacrificed. Blood and liver samples were collected from each animal and assayed for hepatic and systemic toxicities. The blood sample analyses included a Superchem panel and a total blood count. The Superchem panel assayed blood levels of glucose, urea nitrogen (BUN), creatinine, total protein, albumin, both conjugated and unconjugated bilirubin, triglycerides, SGOT, SGPT, triglycerides, CPK, alkaline phosphatase, and peripheral blood differentials. Total blood counts were analyzed for hematocrit, as well as both red and white blood cell counts. Liver samples were subjected to histological analysis in order to determine changes in morphology, architecture and increase in necrotic tissue as compared to the controls. Any acute or sustained increases in blood counts or serum components indicative of organ damage in comparison with the untreated control was taken to be indicative of a toxic response. In addition, the weights of each cohort were recorded throughout the treatment period as an indication of their clinical condition.

[2] = 10 mg/kg weekly, WEEK 6 (treatment stopped for two weeks)

## CC(=O)N[C@H]1[C@H](OCCCCCCNC(=O)CC[C@H](NC(=O)CC[C@H](NC(=O)[C@H](Cc2ccc(O)cc2)NC(=O)C2CCC(CN3C(=O)CC(SCCCCCCOP(=O)(O)OC[C@H]4O[C@@H](n5cc(F)c(=O)[nH]c5=O)C[C@@H]4O)C3=O)CC2)C(=O)NCCCCCCO[C@@H]2O[C@H](CO)[C@H](O)[C@H](O)[C@H]2NC(C)=O)C(=O)NCCCCCCO[C@@H]2O[C@H](CO)[C@H](O)[C@H](O)[C@H]2NC(C)=O)O[C@H](CO)[C@H](O)[C@@H]1O (stereo partly drawn) [po 1-mer, YEE(ahGalNAc)3-SMCC-poFU]
Hep G2 cells; 1 μM, 30 min
  cellular uptake: 5 pmoles/million cells
Hep G2 cells; 1 μM, 480 min
  cellular uptake: 24.75 pmoles/10^6 cells
  cellular uptake (peak): 25 pmoles/million cells
Hep G2 cells; 2 μM, 480 min
  cellular uptake: about 26 pmole/10^6 cells
Hep G2 cells; 4 μM
  maximal cellular uptake: 36 pmoles/million cells
Hep G2 cells; 4 μM, 480 min
  maximum cellular uptake: about 36 pmoles/10^6 cells
Hep G2 cells; 8 μM
  maximal cellular uptake: 43 pmoles/million cells
Hep G2 cells; 8 μM, 120 min
  cellular uptake: 35 pmoles/10^6 cells
Hep G2 cells; 8 μM, 480 min
  maximum cellular uptake: ~42 pmoles/10^6 cells
[1]; 10 mg/kg weekly
  histological analysis of liver: mild hepatocellular swelling
  increased total bilirubin and gamma-glutamyl transferase (GT) levels: not observed
  lactate dehydrogenase levels: increased
[1]; 10 mg/kg weekly, WEEK 1
  BUN: 24.66 mg/dL
  Calcium: 7.56 mg/dL
  Chloride: 106.33 meq/l
  MCH: 17.2 pg
  MCV: 51.5 fL
  Potassium: 11.63 meq/l
  SGOT: 335.5 u/l
  SGPT: 46.5 u/l
  Sodium: 155.6 meq/l
  WBC: 4.86 thds/cmm
[1]; 10 mg/kg weekly, WEEK 2
  BUN: 18 mg/dL
  Calcium: 7.75 mg/dL
  Chloride: 95 meq/l
  MCH: 15.6 pg
  MCV: 51 fL
  Potassium: 11.1 meq/l
  SGOT: 911.33 u/l
  SGPT: 110 u/l
  Sodium: 142.5 meq/l
  WBC: 3.16 thds/cmm
[1]; 10 mg/kg weekly, WEEK 3
  BUN: 22 mg/dL
  Calcium: 8.85 mg/dL
  Chloride: 87.5 meq/l
  MCH: 16.56 pg
  MCV: 56 fL
  Potassium: 8.9 meq/l
  SGOT: 1174 u/l
  SGPT: 177 u/l
  Sodium: 152.5 meq/l
  WBC: 2.8 thds/cmm
[1]; 10 mg/kg weekly, WEEK 4
  BUN: 21.33 mg/dL
  Calcium: 6.5 mg/dL
  Chloride: 86.66 meq/l
  MCH: 16.42 pg
  MCV: 52.83 fL
  Potassium: 12.46 meq/l
  SGOT: 1549.5 u/l
  SGPT: 125.66 u/l
  Sodium: 161.6 meq/l
  WBC: 1.83 thds/cmm
[1]; [2]
  BUN: 22.44 mg/dL
  Calcium: 7.7 mg/dL
  Chloride: 89.72 meq/l
  MCH: 16.1 pg
  MCV: 51.18 fL
  Potassium: 10.82 meq/l
  SGOT: 1211.61 u/l
  SGPT: 137.55 u/l
  Sodium: 162.22 meq/l
  WBC: 3.03 thds/cmm
[1]; 10 mg/kg weekly, four week period
  weight gain: progressive and similar to the saline-treated control mice
[1]; 15 mg/kg weekly
  complete blood count: platelets: mild thrombocytopenia
  histological analysis of liver: mild hepatocellular swelling and limited subcapsular fibrosis in one mouse
  increased total bilirubin and gamma-GT levels: not observed
  lactate dehydrogenase levels: increased
  weight gain: somewhat less than the untreated control mice
[1]; 15 mg/kg weekly, WEEK 1
  BUN: 26 mg/dL
  Calcium: 9.15 mg/dL
  Chloride: 101.33 meq/l
  MCH: 16.83 pg
  MCV: 50 fL
  Potassium: 8.9 meq/l
  SGOT: 730 u/l
  SGPT: 67.5 u/l
  Sodium: 154.5 meq/l
  WBC: 2 thds/cmm
[1]; 15 mg/kg weekly, WEEK 3
  BUN: 22 mg/dL
  Calcium: 7.73 mg/dL
  Chloride: 87.5 meq/l
  MCH: 16.56 pg
  MCV: 56.556 fL
  Potassium: 8.7 meq/l
  SGOT: 1194 u/l
  SGPT: 120.3 u/l
  Sodium: 156.5 meq/l
  WBC: 2.1 thds/cmm
[1]; 15 mg/kg weekly, WEEK 4
  BUN: 20.33 mg/dL
  Calcium: 6.7 mg/dL
  Chloride: 81.66 meq/l
  MCH: 14.2 pg
  MCV: 51 fL
  Potassium: 13.46 meq/l
  SGOT: 1669.5 u/l
  SGPT: 123.66 u/l
  Sodium: 165.6 meq/l
  WBC: 1.85 thds/cmm
[1]; 10 and 15 mg/kg weekly
  overall toxicity: mild at best
